Laboratory results as given in patent publication US20040156820A1, “Adjuvant combination formulations” (priority 2000, published 2004).

B1: GM-CSF (10): recombinant murine granulocyte macrophage colony stimulating factor, given with Aβ1-42 peptide (protein, UniProt P01587 18-141, looked up)
Granulocyte-macrophage …: APTRSPITVTRPWKHVEAIKEALNLLDDMPVTLNEEVEVVSNEFSFKKLTCVQTRLKIFEQGLRGNFTKLKGALNMTASYYQTYCPPTPETDCETQVTTYADFIDSLKTFLTDIPFECKKPGQK

Experiments:
[1] = format: in vivo, cynomologous monkeys (Macaca fagscicularis); settings: cynomologous monkeys, five immunizations weeks 0, 4, 8, 18, 23
Protocol: Immunizations: All intranasal immunizations were delivered with a 100 μl metered dose nasal spray device. All intramuscular injections were given in the quadriceps muscle with needle and syringe. All animals were immunized on a schedule of 0, 4, 8, 18 and 23 weeks.
Group 1: 1000 μg C4 (E9V)-V389.6P peptide in sterile normal saline, final volume 200 μl (100 μl each nostril).
Group 2: 1000 μg C4 (E9V)-V389.6P peptide, 50 μg 529 SE, and 250 μg human GM-CSF, final oil concentration 1%, final volume 1.0 ml (500 μl each quadriceps by IM injection).
All animals were closely monitored for changes in body temperature during the 24 hours immediately following each administration of the immunogen.

[2] = tested on: Aβ1-42 peptide; experiment: Reciprocal anti-Aβ1-42 IgG endpoint total and subclass titers (Example 4); format: in vivo; settings: Swiss-Webster mice n=10, 30 μg Aβ1-42 s.c. week 0 and 3
Protocol: Formulations were mixed by vortex immediately prior to immunization.
After incubation, wells were washed, and developed with ABTS. Wells were read at 405 nm. Titers were standardized using control sera.
The same protocol was followed for analysis of […] peptide-specific antibody and subclass distribution, except that a concentration of 0.3 μg/ml per microtiter plate was used.
Outbred Swiss-Webster mice were divided into groups of ten mice each. Each group received 30 μg of Aβ1-42 peptide, which corresponds to an internal 42 amino acid long region of APP. […] Mice were immunized subcutaneously in the rump with a total volume of 0.2 ml, divided equally into each of two sites at the base of the tail/rump. Immunizations were administered at week 0 and week 3.
Mice were bled at days 0, 20, 35 and 70. Serum was analyzed from individual mice. Reciprocal endpoint anti-Aβ1-42 peptide IgG endpoint total class and subclass titers were measured from individual sera (n=10 Swiss-Webster) at week 5 and at week 10.

Chain of Aβ1-42 peptide (P05067 672-713): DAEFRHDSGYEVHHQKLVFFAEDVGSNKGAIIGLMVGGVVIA

Molecule	Immunogen safety and tolerability [1]	Anti-Aβ1-42 Week 5 IgG Endpoint Titers, Geometric Mean [2]	Anti-Aβ1-42 Week 10 IgG2a Endpoint Titers, Geometric Mean [2]	Anti-Aβ1-42 Week 10 IgG Endpoint Titers, Geometric Mean [2]	Anti-Aβ1-42 Week 5 IgG1 Endpoint Titers, Geometric Mean [2]	Anti-Aβ1-42 Week 5 IgG2a Endpoint Titers, Geometric Mean [2]	Anti-Aβ1-42 Week 10 IgG1 Endpoint Titers, Geometric Mean [2]
CC[C@H](C)[C@H](NC(=O)[C@H](CO)NC(=O)[C@H](CC(C)C)NC(=O)[C@H](CCCNC(=N)N)NC(=O)[C@H](CCC(=O)O)NC(=O)[C@H](CCCNC(=N)N)NC(=O)[C@@H](NC(=O)[C@H](CC(N)=O)NC(=O)[C@H](CC(N)=O)NC(=O)[C@H](CC(N)=O)NC(=O)[C@@H]1CCCN1C(=O)[C@H](CCCNC(=N)N)NC(=O)[C@@H](NC(=O)[C@H](C)NC(=O)[C@H](Cc1ccc(O)cc1)NC(=O)[C@H](CCSC)NC(=O)[C@H](C)NC(=O)[C@H](CCCCN)NC(=O)CNC(=O)[C@@H](NC(=O)[C@@H](NC(=O)[C@H](CCC(N)=O)NC(=O)[C@H](Cc1c[nH]c2ccccc12)NC(=O)[C@H](CCSC)NC(=O)[C@H](CC(N)=O)NC(=O)[C@@H](NC(=O)[C@@H](NC(=O)[C@H](CCC(N)=O)NC(=O)[C@@H](N)CCCCN)[C@@H](C)CC)[C@@H](C)CC)C(C)C)C(C)C)[C@@H](C)O)[C@@H](C)O)C(=O)NCC(=O)N1CCC[C@H]1C(=O)NCC(=O)N[C@@H](CCCNC(=N)N)C(=O)N[C@@H](C)C(=O)N[C@@H](Cc1ccccc1)C(=O)N[C@@H](Cc1ccc(O)cc1)C(=O)N[C@@H](C)C(=O)N[C@@H](CCCNC(=N)N)C(=O)N[C@@H](CCCNC(=N)N)C(=O)O [C4(E9V)-V389.6P peptide alone]	extremely well tolerated						
None: 30 μg Aβ1-42 peptide (SEQ ID NO:6) without adjuvant		12,976	5,910	21,426			
B1		214,497	64,910	1,049,414	8,654	25,554	8,483
